Experimental data reported in article PMC5070119, “Oligomeric interface modulation causes misregulation of purine 5´-nucleotidase in relapsed leukemia” (BMC Biology, 2016).
Numbering of substitutions follows the chain as printed. In names and notes the source's numbering stands.

B1: cytosolic purine 5'-nucleotidase (cN-II), full-length wild type (enzyme, human, UniProt P49902 1-561, looked up)
chain: MSTSWSDRLQNAADMPANMDKHALKKYRREAYHRVFVNRSLAMEKIKCFGFDMDYTLAVYKSPEYESLGFELTVERLVSIGYPQELLSFAYDSTFPTRGLVFDTLYGNLLKVDAYGNLLVCAHGFNFIRGPETREQYPNKFIQRDDTERFYILNTLFNLPETYLLACLVDFFTNCPRYTSCETGFKDGDLFMSYRSMFQDVRDAVDWVHYKGSLKEKTVENLEKYVVKDGKLPLLLSRMKEVGKVFLATNSDYKYTDKIMTYLFDFPHGPKPGSSHRPWQSYFDLILVDARKPLFFGEGTVLRQVDTKTGKLKIGTYTGPLQHGIVYSGGSSDTICDLLGAKGKDILYIGDHIFGDILKSKKRQGWRTFLVIPELAQELHVWTDKSSLFEELQSLDIFLAELYKHLDSSSNERPDISSIQRRIKKVTHDMDMCYGMMGSLFRSGSRQTLFASQVMRYADLYAASFINLLYYPFSYLFRAAHVLMPHESTVEHTHVDINEMESPLATRNRTSVDFKDTDYKRHQLTRSISEIKPPNLFPLAPQEITHCHDEDDDEEEEEEEE
notes: cytosolic purine 5'-nucleotidase (cN-II), human, EC 3.1.3.5, 561 residues; full length made by ligating a synthetic C-terminal tail into the truncated construct; Homotetramer; also called wild-type cN-II; NT5C2 product
B2: cytosolic purine 5'-nucleotidase (cN-II) R367Q, full-length (enzyme, human, UniProt P49902 1-561, looked up)
chain: B1 chain with R367Q
notes: cytosolic purine 5'-nucleotidase (cN-II), human, 561 residues, with the relapsed-ALL somatic mutation R367Q; Mutation found in patients with relapsed ALL; Homotetramer; also called R367Q mutant
B3: cytosolic purine 5'-nucleotidase (cN-II) R238W, full-length (enzyme, human, UniProt P49902 1-561, looked up)
chain: B1 chain with R238W
notes: cytosolic purine 5'-nucleotidase (cN-II), human, 561 residues, with the relapsed-ALL somatic mutation R238W; Mutation found in patients with relapsed ALL; Homotetramer; also called R238W mutant
B4: cytosolic purine 5'-nucleotidase (cN-II) L375F, full-length (enzyme, human, UniProt P49902 1-561, looked up)
chain: B1 chain with L375F
notes: cytosolic purine 5'-nucleotidase (cN-II), human, 561 residues, with the relapsed-ALL somatic mutation L375F; Mutation found in patients with relapsed ALL; Homotetramer; also called L375F mutant

Target: the molecule itself
Experiment: SEC; Superdex 200 10/300 GL, 50 mM sodium phosphate pH 7.4, 100 mM NaCl, 2 mM TCEP; 200 ul of 0.5 mg/ml protein; calibrated with high molecular weight standards

Stoichiometry N, 4:
B1
B2
B3
B4
